These results are taken from PMC8630636, “Fis Connects Two Sensory Pathways, Quorum Sensing and Surface Sensing, to Control Motility in Vibrio parahaemolyticus”.

T1: Fis (Vibrio parahaemolyticus RIMD2210633) (UniProt P64128)
T1 sequence: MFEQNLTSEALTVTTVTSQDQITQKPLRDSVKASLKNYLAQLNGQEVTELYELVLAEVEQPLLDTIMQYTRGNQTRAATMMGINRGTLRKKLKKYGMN

T2: Fis (Vibrio parahaemolyticus RIMD2210633, UniProt P64128 1-98)
T2 sequence: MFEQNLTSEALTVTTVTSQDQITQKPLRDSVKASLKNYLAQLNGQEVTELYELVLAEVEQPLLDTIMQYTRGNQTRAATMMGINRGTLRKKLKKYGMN

B1: Qrr3coding_mut (dsDNA)
DNA 1: CCTTCTTAAGCCGAGAGTATCTTAGATAAATGACGTTGTTAGTGAA
DNA 2: TTCACTAACAACGTCATTTATCTAAGATACTCTCGGCTTAAGAAGG
B2: ParaB_WT (probe 3) (dsDNA)
DNA 1: TTTTTGTCCATAAACTTAGCAACCCTATTTATGGGATAACCCAC
DNA 2: GTGGGTTATCCCATAAATAGGGTTGCTAAGTTTATGGACAAAAA
B3: ParaB_mut (probe 3) (dsDNA)
DNA 1: TTTTTATCACTCCTCGTAGAAACCCTATTTATGGGATAACCCAC
DNA 2: GTGGGTTATCCCATAAATAGGGTTTCTACGAGGAGTGATAAAAA

One data set addresses T1, Fis (Vibrio parahaemolyticus RIMD2210633). Kind of data set: EMSA. Conditions: 10 mM Tris, 150 mM KCl, 0.1 mM DTT, 0.1 mM EDTA, 5% PEG, pH 7.4, 20 min at room temperature; 30 ng DNA; 6% native gel in 1x TAE at 4 C. In general terms: Mobility shift assays separate free from complexed probe on a gel.
As to “AATCTACTTGTTGTTATAGCCAGAGCTGGTGGGTTATCCCATAAATAGGGTTGCTAAGTTTATGGACAAAAACGTCACTGGGTGTTTTTTGTGTCCTTTTTAACACCTTTATATATTGCTCAAAAATTAAGTGTTTTCGATCATGATTAACG (double strand) [ParaB probe 2]”, the binding entry was “binds”.

“AGCCTGACGTTGGTAAGGTGCGCTAAAACACCAAAATATGCCGAGTTAAAAGATACCAAAAATCGATGTACTTCCTCTGTAGGAATAGTCCTATTTACATAGCAGGAAACACCTAAAGCAGCGCTTTATTAACGGCTTAATCAACACGTCACATTCCTAAAATGAATTAAATATTTTCAGCTTTTTAGTCGCCTTGTCTTATAGGGAAACACTAGATGTTTTCGAGAGGAAGGCGGAACACATA (double strand) [PlafB]”: the binding result was “binds”.

As to “CATAGGTTCACCTTTAAGAATTATTGTTTGTGTTATGGTTCACATTTATTTCAGTTACCGGTAACATGTTACCGATAACATGAATAAGATAAACCCATATTTTAAAGTGAATTCAAAAATTGAGATCACGCGCAAATT (double strand) [PgntK probe 1]”, the binding result is “binds”.

“CCATCCACTGGTAGAGGTGAGTGTTCGCTGTACATATTTGTGCATCCTTGACCATTTGTTAGTGATAAAAATCACAGCGGAAAAATGTAGCAATTTTGTCCATTCATTTAGCTACAGAGGCTATGAAGCAGCTCTCAA (double strand) [ParaB probe 1]”: the binding result was “binds”.

For “CCATTTGAAAAGGGATTGAGTGTTGTTGATAGAGTTTTTTTTACTGGAGATTTGATACGTTAACTGGATTTTTGTAACATTAAAATGGAAGTGTGATTTTGCTCAATAGCACAAAAGTCCAGTCCGGTGT (double strand) [VPA1424 regulatory region (negative control)]”, the binding result is reported as “binds more weakly”.

As to “CTTAATAATAGTTTTATCTATAAACAAACAGTGAGCTTTGTTATAAATTCATTAAAAATTTAACTTTGTATTAATTAGAAAATTCAGCGTCATATTTGTTCAACTGCGACTATTCTTTTTATAACCAAGTAATCTC (double strand) [PscrABC probe 2]”, the binding entry is recorded as “binds”.

On to “GAGCTCTCCTAGGTACCAACCGTGAAATCCATTTACTGAGGTATTTTTCCTCATTAATTAGCAGTATAGGGTAAAAATATGAAAGCTAATGGATAATCATAAAGTAGTAGTTGGTTTTTTGCTGAGAAAGTGATTAGTAGCAATGTAACAAGTGGCATATTTGCATGCTATTGCATTTTGCAAATGCAATTTGCGAAAGTGCTGGTTAATAATGCGTCGATATGCACCTGGATCTATTAAAAAACGGCTTTTTTAAAGTTGGCACGCATCGTGCTTTATCTAGAG (double strand) [Pqrr4]”, for which the binding entry is listed as “binds”.

Turning to “GCGTTTATCATAAAAATAGTCAATTTAATGAATATTTTAATATGTATTCAGTTGTTTATTGGTTGGAGGCGAAACTGTTGCTTATGTCATCAAATAAGCTAAAAAAGTGGAACTAAAGTCACTTAATGGCAGAGTAAAAAATTAAAG (double strand) [PscrABC probe 1]”, the binding entry is reported as “binds”.

Turning to “TATGTTAAGTTTCATAAAATGGCTTGATGTTTAAATGAACAGTTAATTTTTAGACCATATATAGCGAGATCTAAAGTAGTTCAAACAAATGTACGGTCTAACTCTTAGCTGCGAGAACAAACCACTTGGATATACGCTC (double strand) [PscrABC probe 3]”, the binding result is “binds”.

In the case of “TCACGCGAATACGCACTTTAATACGTATGTCTAATGTTTATACGCGACCACTTTCGCCTAAAAGTTTAGGTATAGTTGATAATTAGTCGACTTAAGCAATCTATGTACCAAAATCAACGCCAAAATAATGACTCAAAGCTAAATAACAGCACAATCCATTG (double strand) [PflhA]”, the binding entry is “binds”.

The target of the next data set is T2, Fis. As to the kind of experiment: EMSA; 10 mM Tris, 150 mM KCl, 0.1 mM DTT, 0.1 mM EDTA, 5% PEG, pH 7.4, 20 min at room temperature; 30 ng DNA; 6% native gel in 1x TAE at 4 C. Conditions: protein: recombinant; tags: 6xHis-MBP fusion (pMAL-c5x) removed by TEV cleavage; chain copies: 2; blunt.
Turning to B1, the binding result was “no binding”.

As for B2, the binding result is recorded as “binds”.

As for B3, the binding result is given as “no binding”.
